Data taken from patent US20210221867A1 (Novo Nordisk, published 2021).
Positions of bridges follow the written chain, without caps; N, C: chain ends. Non-standard residues stand in square brackets, D forms with d. Nle = CCCC[C@H](N)C(=O)O

What was measured:
[1] = target: T1, human MC4 receptor (human, UniProt P32245 1-332); experiment: cell-based or functional assay
[2] = target: T2, human MC1 receptor (human, UniProt Q01726 1-317); experiment: cell-based or functional assay
[3] = target: T2, human MC1 receptor; experiment: SPA competition binding, displacement of 125I-NDP-α-MSH, BHK membranes with human MC1R
Experimental: (§1) The SPA Binding assay was performed in 96-well white opaque plates. Each well contained: 0.5 mg PVT-WGA SPA beads, MC1 receptor expressing membrane diluted to give approximately 10% specific tracer binding, 50.000 dpm ¹²⁵I-NDP-α-MSH and relevant dilutions of test compound. The final volume in each well was 200 μl. […] Plates were incubated overnight (22-24 hours) at room temperature before counting for 2 minutes per well, using a TopCount NXT scintillation counter. Displacement of radio ligand is measured as reduction in light emission from SPA beads, and IC₅₀ values are calculated by nonlinear regression analysis of sigmoidal dose-response curves in GraphPad Prism (GraphPad Software, La Jolla, Calif., USA).

[4] = target: T1, human MC4 receptor; experiment: SPA competition binding, displacement of 125I-NDP-α-MSH, BHK membranes with human MC4R
Experimental: as §1, with “MC4” for “MC1”

T1 sequence (P32245 whole entry): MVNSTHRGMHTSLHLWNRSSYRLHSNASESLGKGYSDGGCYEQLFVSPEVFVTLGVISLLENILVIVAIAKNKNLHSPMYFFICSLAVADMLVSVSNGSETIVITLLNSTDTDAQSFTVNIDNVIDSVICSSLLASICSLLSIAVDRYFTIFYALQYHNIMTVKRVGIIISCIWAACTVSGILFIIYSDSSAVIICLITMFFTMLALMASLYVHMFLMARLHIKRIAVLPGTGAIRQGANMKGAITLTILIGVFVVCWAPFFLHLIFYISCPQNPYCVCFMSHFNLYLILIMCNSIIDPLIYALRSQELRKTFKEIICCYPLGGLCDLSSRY
T2 sequence (Q01726 whole entry): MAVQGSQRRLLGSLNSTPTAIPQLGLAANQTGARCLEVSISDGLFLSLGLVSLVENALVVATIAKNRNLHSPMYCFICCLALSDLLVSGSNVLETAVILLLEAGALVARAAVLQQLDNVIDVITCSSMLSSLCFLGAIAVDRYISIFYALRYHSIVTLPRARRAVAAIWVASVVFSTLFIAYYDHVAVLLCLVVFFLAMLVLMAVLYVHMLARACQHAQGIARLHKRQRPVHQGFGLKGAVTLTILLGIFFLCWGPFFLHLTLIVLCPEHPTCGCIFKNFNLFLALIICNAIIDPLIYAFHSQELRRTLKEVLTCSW

MC4R cAMP EC50 [1]: 0.00022 µM
MC1R cAMP EC50 [2]: 0.172 µM
IC50 [3]: 0.0397 µM
IC50 [4]: 0.00023 µM
B1: Ac-Arg-c[Cys-Pro-His-D-Phe-His-Trp-Cys]-Pro-Pro-D-Arg-Glu-Nle-D-Arg-D-Arg-NH2 (peptide)
peptide: Ac-RCPH[dF]HWCPP[dR]E[Nle][dR][dR]-NH2
modifications: disulfide 2-8
SMILES: CCCC[C@H](NC(=O)[C@H](CCC(=O)O)NC(=O)[C@@H](CCCNC(=N)N)NC(=O)[C@@H]1CCCN1C(=O)[C@@H]1CCCN1C(=O)[C@@H]1CSSC[C@H](NC(=O)[C@H](CCCNC(=N)N)NC(C)=O)C(=O)N2CCC[C@H]2C(=O)N[C@@H](Cc2c[nH]cn2)C(=O)N[C@H](Cc2ccccc2)C(=O)N[C@@H](Cc2c[nH]cn2)C(=O)N[C@@H](Cc2c[nH]c3ccccc23)C(=O)N1)C(=O)N[C@H](CCCNC(=N)N)C(=O)N[C@H](CCCNC(=N)N)C(N)=O
notes: Synthetic cyclic peptide; also called Chem. 5
